Consider twelve molecules from patent US20170174769A1 (Regeneron, published 2017).

Where a chain is given by its changes, count along the chain named. Numbers in names are those of the source.

Sequences and labels used below:
B1: H4H8852P (antibody, V domains shown)
VH: QVQLQESGPGLVKPSETLSLTCTVSGGSISSYYWSWIRQPPGKGLEWIGYIYSSGIIKYNPSLKSRVTISADTSKNQFSLKLSSVTAADTAVYYCARHGIFGVMEYFQRWGQGTLVTVSS
VL: DIQMTQSPSSLSASIGDRVTITCQASQDIGNFLNWYQQKPGKAPTLLIYDASNMETGVPSRFSGSGSGTYFTFTISSLQPEDVATYYCQQYDNLPLTFGGGTKVEIK
notes: human IgG4 Fc (H4H prefix)
B2: H4H8871P (antibody, V domains shown)
VH: B1 VH with G27A
VL: B1 VL with Q37H, S63R, T74I
notes: human IgG4 Fc (H4H prefix)
B3: H4H8856P (antibody, V domains shown)
VH: B1 VH with G49A, S53Y, I57T
VL: B1 VL with G30S, A51V, S67Y, Y70D, F73L, Q79K, V83I, L94I
notes: human IgG4 Fc (H4H prefix)
B4: H4H8837P (antibody, V domains shown)
VH: QVQLVESGGGVVQPGRSLRLSCAASGFTFNSYAMHWVRQAPGMGLEWVAVISSDGSNKYYADSVRGRFTVSRDNSKNTLYLQMNSLRSEDTAVYYCAKDGRGYSSFSHFGMDVWGQGTTVTVSS
VL: DIQMTQSPSTLSASVGDRVTITCRASQSIGSWLAWYQQKPGKAPKLLIYKTSSLESGVPSRFSGSGSGTEFTLTISSLQPDDFASYYCQQYNSYSFGQGTKVEIK
notes: human IgG4 Fc (H4H prefix)
B5: H2aM8109N (antibody, V domains shown)
VH: QVQVVESGGGVVQPGRSLRLSCAASGFTFSSYGLHWVRQAPGKGLEWVAVIWHDGSHKYYADSVKGRFTISRDNSKNTLYLQMNSLRAEDTAVYYCARDGIPVAEDYYFYGMDVWGQGTTVTVSS
VL: DIQMTQSPSSLSASVGDRVTITCRASQGIRNDLGWYQQKPGKAPKRLIYAASSLQSGVPSRFSGSGSGTEFTLTISSLQPEDFAIYYCLQHNSLTFGGGTKVEIK
notes: mouse IgG2 Fc (H2aM prefix)
B6: H1M8115N (antibody, V domains shown)
VH: QVQLVQSGAEVKKPGSSVKVSCKASGGTFSTYEISWVRQAPGQGLEWMGGIIPVFGTTHYAQKFQDSVTITTDESTGTAFMELSSLKSEDTAVYYCARGGAGGDNWGQGTLVTVSS
VL: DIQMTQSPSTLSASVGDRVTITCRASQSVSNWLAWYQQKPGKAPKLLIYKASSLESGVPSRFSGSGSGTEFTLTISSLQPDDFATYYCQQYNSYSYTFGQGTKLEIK
notes: H1M Fc prefix (mouse Fc)
B7: H2aM8093N (antibody, V domains shown)
VH: QVQLVQSGAEVKRPGSSVKVSCKASGDTFSTYAISWVRQAPGQGLEWMGGIIPVFGTTNYAQKFQDRVTITTDESTRTAYMELSSLRSEDTAVYYCAGIAGPDYWGQGTLVTVSS
VL: DIQMTQSPSSLSASVGDRVTITCRASQGIRNYLAWFQQKPGKAPKSLIYLATSLQSGVPSKFSGSGSGTDFTLTISSLQPEDFATYYCQQYYSYPWTFGQGTKVEIK
notes: mouse IgG2 Fc (H2aM prefix)
B8: H2aM8832N (antibody, V domains shown)
VH: QVQLVESGGGVVQPGRSLRLSCAASGFTFSRYGMHWVRQAPGKGLEWVAVIWYDGTNKYYEDSLKGRFTISRDNSKNTLYLQMNSLRAEDSAVYYCARDQGKYIDYWGQGTLVTVSS
VL: AIQMTQSPSSLSASVGDRVTITCRTSQDIRNDLGWYQQKPGKVPNLLIYAASTLQSGVPSRFSGSGSGTDFTLTISSLQPEDFATYYCLQDYNYPFTFGPGTKVDIK
notes: mouse IgG2 Fc (H2aM prefix)
B9: H4H8878P (antibody, V domains shown)
VH: QVQLVESGGGVVQPGRSLRLSCAASGFTLNTYGMHWIRQTPGKGLEWVSLISYDETKEYYVDSVKGRFTISRDNSKNTLYLQMNSVRVEDTAVYYCAKPLTGSTDYYYGLDVWGQGTTVTVSS
VL: DIQMTQSPSYVSASVGDRVIITCRASQDISSWLAWYQQKPGKAPKLLIYVTSSLESGVPSRFSGSGSGTDFTLTISGLQPEDFATYYCQQVKSFPPTFGPGTKVDIK
notes: human IgG4 Fc (H4H prefix)
B10: H4H8859P (antibody, V domains shown)
VH: EVQLVESGGSVVRPGGSLRLSCAASGFTFDVYGMSWVRQAPGKGLEWVSGINWIGGSTGYADSVKGRFTISRDNAKNSLYLQMNSLRAEDTALYYCTREEDYWGQGTLVTVSS
VL: DVVMTQSPLSLAVTLGQPASISCRSSQSLVYSDGNTYLNWFQQRPGQSPRRLFYKVSNRDSGVPDRFSGSGSGTDFTLKISRVEAEDVGIYYCMQGIKWPLTFGGGTKVEIK
notes: human IgG4 Fc (H4H prefix)
B11: H2aM8098N (antibody, V domains shown)
VH: QLQLQESGPGLVKPSETLSLTCTVSGGSISSSNYYWDWIRQTPEKGLEWIGSIHYSGTSYYNPSLKSRVTISVDTSKNQFSLKLRSVTAADAAVYYCARQTSVYWYFDIWGHGTLVTVST
VL: EIVLTQSPGTLSLSPGEGATLSCRASQSVRNNYLAWYQQKPGQAPRLLIYGASSRAIGIPDRFSGSGSGTDFTLTISRLEPKDFVVYYCQQYGGSLFTFGPGTKVDIK
notes: mouse IgG2 Fc (H2aM prefix)
B12: H1H8899P (antibody, V domains shown)
VH: EVQLVESGGGLVQPGGSLRLSCAASGFTFSSHWMSWVRQAPGKGLEWVANIKQDGSEKYYVDSVKGRFTISRDNAKNSLYLQISSLRAEDTAVYYCASNWNFLFDFWGQGTLVTVSS
VL: not shown

In the first assay the target is M. fascicularis KLB and human FGFR1c co-expressed on HEK293/MfKLB/hFGFR1c/SRE-Luc cells (M. fascicularis; human, UniProt A0A2K5WB58 1-1044). The assay can be described thus: cell-based or functional assay.
Turning to B1, the “EC50, SRE-luc activation without ligand” value came out at 0.046 nM; the “IC50, inhibition of 10 nM mfFGF21” value worked out at 0.47 nM; the “Maximum Activation (%) without ligand” value worked out at 5%; the “Maximum Inhibition (%) of 10 nM mfFGF21” value turned out to be 101%.
The corresponding values for B2 are 0.13 nM, 0.39 nM, 4% and 92%.
The corresponding values for B3 are 0.18 nM, 0.79 nM, 5% and 91%.
In the case of B4, the “IC50, inhibition of 10 nM mfFGF21” value turned out to be 0.089 nM and the “Maximum Inhibition (%) of 10 nM mfFGF21” value amounted to 51%.
For B5 the same measures were 0.19 nM and 32%.
B6: the “IC50, inhibition of 10 nM mfFGF21” value is 0.03 nM and the “Maximum Inhibition (%) of 10 nM mfFGF21” value was determined as 47%.
For B7 the same measures were 0.026 nM and 46%.
For B8 the same measures were 0.11 nM and 15%.
For B9 the same measures were 0.12 nM and 38%.

The target in the next assay is T1, extracellular domain of human KLB expressed with C-terminal HA and hexahistidine tags (human, UniProt Q86Z14 1-996).
T1 construct: also called hKLB-HA-6His; hKLB-HA-6his
T1 sequence: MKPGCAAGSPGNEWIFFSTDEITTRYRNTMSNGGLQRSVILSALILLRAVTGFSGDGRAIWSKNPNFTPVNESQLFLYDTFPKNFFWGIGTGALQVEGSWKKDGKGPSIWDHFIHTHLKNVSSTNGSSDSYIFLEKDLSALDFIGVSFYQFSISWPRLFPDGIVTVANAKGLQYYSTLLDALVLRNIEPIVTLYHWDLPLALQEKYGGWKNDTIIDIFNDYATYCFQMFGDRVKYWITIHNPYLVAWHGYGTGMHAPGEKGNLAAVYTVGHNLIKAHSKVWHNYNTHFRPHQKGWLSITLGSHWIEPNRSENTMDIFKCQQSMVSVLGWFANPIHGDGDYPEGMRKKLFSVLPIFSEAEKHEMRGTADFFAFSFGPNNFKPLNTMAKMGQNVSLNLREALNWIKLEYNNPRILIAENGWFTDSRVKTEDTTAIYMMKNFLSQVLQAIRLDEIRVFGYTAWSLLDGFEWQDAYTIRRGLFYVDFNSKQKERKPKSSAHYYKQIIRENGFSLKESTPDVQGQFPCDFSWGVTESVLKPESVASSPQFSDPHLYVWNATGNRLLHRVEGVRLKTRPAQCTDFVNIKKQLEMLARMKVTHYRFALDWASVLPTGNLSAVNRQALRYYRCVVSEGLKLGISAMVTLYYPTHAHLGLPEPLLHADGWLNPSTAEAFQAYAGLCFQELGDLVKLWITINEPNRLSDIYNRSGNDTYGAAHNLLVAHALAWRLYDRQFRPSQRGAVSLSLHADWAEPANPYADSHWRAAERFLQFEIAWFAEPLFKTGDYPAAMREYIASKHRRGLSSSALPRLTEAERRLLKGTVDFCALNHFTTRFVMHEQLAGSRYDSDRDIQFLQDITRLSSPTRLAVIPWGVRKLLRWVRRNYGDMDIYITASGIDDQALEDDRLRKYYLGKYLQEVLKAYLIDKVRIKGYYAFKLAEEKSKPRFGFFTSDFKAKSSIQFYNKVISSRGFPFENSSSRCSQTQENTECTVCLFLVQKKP
The assay can be described thus: SPR, mAb captured, 25 C. The procedure, abridged:
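Anti-KLB/FGFR1c mAbs were captured on amine-coupled rabbit anti-mouse or mouse anti-human Fc surfaces, per antibody Fc. Analyte flowed in HEPES pH 7.4, 0.15M NaCl, 3mM EDTA, 0.05% P20; association monitored 3.5 to 4 minutes, dissociation 8-12 minutes.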
Regarding B1, the “20 nM hKLB-HA-6His Bind (RU)” value is -0.2 RU.
On the same count and under the same terms, next, B2: -0.7 RU.
Regarding B3, the “20 nM hKLB-HA-6His Bind (RU)” value was -0.4 RU.
Take B4: the “20 nM hKLB-HA-6His Bind (RU)” value came out at 63 RU, the Kd was 0.367 nM, the koff came out at 0.000128 s⁻¹ and the kon came out at 350000 M⁻¹ s⁻¹. The molecule also had a t1/2 of 1.5 h.
The corresponding values for B5 are 21.3 RU, 4.44 nM, 0.000449 s⁻¹, 101000 M⁻¹ s⁻¹ and 0.428 h.
Regarding B6, the “20 nM hKLB-HA-6His Bind (RU)” value worked out at 77.6 RU, the Kd is 0.11 nM, the koff was determined as 5.02e-05 s⁻¹ and the kon was determined as 455000 M⁻¹ s⁻¹. The t1/2 was found to be 3.83 h.
Take B10: the “20 nM hKLB-HA-6His Bind (RU)” value is -0.8 RU.
B7: the “20 nM hKLB-HA-6His Bind (RU)” value was 147 RU; the affinity, expressed as Kd, was 0.218 nM; the koff is 9.8e-05 s⁻¹; the kon is 449000 M⁻¹ s⁻¹. Besides, the t1/2 worked out at 1.96 h.
For the molecule B11, the “20 nM hKLB-HA-6His Bind (RU)” value stood at 2.7 RU.
Same read-out and setting: with B8 the figure was -0.2 RU; with B12, 0.5 RU.
Consider B9, for which the “20 nM hKLB-HA-6His Bind (RU)” value is 28.4 RU, the Kd turned out to be 1.25 nM, the koff is 0.000213 s⁻¹ and the kon worked out at 170000 M⁻¹ s⁻¹. This molecule also gave a t1/2 of 0.905 h.

For another assay, the target named is human KLB and human FGFR1c co-expressed on HEK293/hKLB/hFGFR1c/SRE-luc cells (human, UniProt Q86Z14 1-1044; P11362 22-822). The assay can be described thus: cell-based or functional assay.
Regarding B1, the “EC50, SRE-luc activation without ligand” value amounted to 0.21 nM and the “Maximum Activation (%) without ligand” value worked out at 5%.
For B2, the “EC50, SRE-luc activation without ligand” value turned out to be 0.18 nM and the “Maximum Activation (%) without ligand” value is 5%.
With B3, the “EC50, SRE-luc activation without ligand” value is 0.3 nM and the “Maximum Activation (%) without ligand” value came to 6%.
For B4 the same measures were 0.12 nM and 1%.
Regarding B5, the “EC50, SRE-luc activation without ligand” value turned out to be 3.3 nM and the “Maximum Activation (%) without ligand” value worked out at 0.5%.
For B6 the same measures were 0.053 nM and 1%.
For B7 the same measures were 0.068 nM and 1%.
For B11 the same measures were 23 nM and 1%.
B8: the “EC50, SRE-luc activation without ligand” value amounted to 0.75 nM and the “Maximum Activation (%) without ligand” value turned out to be 4%.
Consider B9, for which the “EC50, SRE-luc activation without ligand” value turned out to be 0.41 nM and the “Maximum Activation (%) without ligand” value came out at 1%.
